From patent publication US20030145347A1

What was measured:
Assay in all cases: cell-based or functional assay
[1] = molecular target: wheat thioredoxin with S-tag (recombinant, expressed in E. coli from pNOV4114) (wheat (T. aestivium [sic]))
[2] = molecular target: rice thioredoxin with S-tag (recombinant, expressed in E. coli from pNOV4113) (rice)
[3] = molecular target: soybean thioredoxin as labelled in the 4th table (with or without S-tag not told) (soybean)

Sequence of E. coli thioredoxin reductase (T-7915, Sigma, St. Louis, Mo.) (P0A9P4 2-321 limits assumed): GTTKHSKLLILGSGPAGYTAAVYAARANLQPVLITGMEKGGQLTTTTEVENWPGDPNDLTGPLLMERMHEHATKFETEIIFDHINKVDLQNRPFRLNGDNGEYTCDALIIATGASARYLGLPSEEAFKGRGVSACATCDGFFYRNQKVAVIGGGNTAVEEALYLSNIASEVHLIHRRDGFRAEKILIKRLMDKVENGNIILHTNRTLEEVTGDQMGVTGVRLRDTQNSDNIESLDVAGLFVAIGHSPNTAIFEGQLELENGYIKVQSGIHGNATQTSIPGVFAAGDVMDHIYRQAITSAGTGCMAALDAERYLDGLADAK

Row | change in A412 over 4 min, NADPH thioredoxin reductase DTNB assay; 30 ul (about 0.6 ug) wheat thioredoxin, 1.5 ul (0.5 ug) Arabidopsis reductase [1] | change in A412 over 4 min, NADPH thioredoxin reductase DTNB assay; 30 ul (about 1.2 ug) wheat thioredoxin, 1.5 ul (0.5 ug) Arabidopsis reductase [1] | change in A412 over 4 min, NADPH thioredoxin reductase DTNB assay; 30 ul (about 15 ug) rice thioredoxin, 1.5 ul (about 0.5 ug) Arabidopsis reductase [2] | change in A412 over 4 min, NADPH thioredoxin reductase DTNB assay; 30 ul (about 12 ug) soybean thioredoxin, 1.5 ul (about 0.5 ug) Arabidopsis reductase [3] | change in A412 over 4 min, NADPH thioredoxin reductase DTNB assay; 30 ul (about 0.6 ug) wheat thioredoxin, 2.3 ug E. coli reductase [1] | change in A412 over 4 min, NADPH thioredoxin reductase DTNB assay; 30 ul (about 15 ug) rice thioredoxin, 2.3 ug E. coli reductase [2] | change in A412 over 4 min, NADPH thioredoxin reductase DTNB assay; 30 ul (about 6 ug) soybean thioredoxin, 2.3 ug E. coli reductase [3] | change in A412 over 4 min, NADPH thioredoxin reductase DTNB assay; 30 ul (about 12 ug) soybean thioredoxin, 2.3 ug E. coli reductase [3] | Substance
1 | 0.08 A412 | 0.08 A412 | 0.66 A412 | 0.42 A412 | – | – | – | – | Arabidopsis NADPH thioredoxin reductase without S-tag (recombinant, expressed in E. coli from pNOV4115) (from UniProt Q39243 43-375) (enzyme)
2 | – | – | – | – | 0.3 A412 | 0.3 A412 | 0.2 A412 | 0.333 A412 | E. coli thioredoxin reductase (T-7915, Sigma, St. Louis, Mo.) (from UniProt P0A9P4 2-321) (enzyme)
